Results from paper PMC5016229.

Biological target: RSV F DS-Cav1 (human respiratory syncytial virus | bacteriophage T4) (UniProt P03420)
Assay: SEC

“RSV F DS-Cav1 (from UniProt P03420 26-109; P03420 137-513) (domain or fragment)” was tested, and the stoichiometry N was 3.
